Measurements reported in article PMC4297639 (Nature protocols, 2014).

Molecular target: BACE2 (aspartic protease, recombinant, wild-type) (Homo sapiens (assumed; ), UniProt Q9Y5Z0)
Experiment: crystal structure

Chain of BACE2 (aspartic protease, recombinant, wild-type) (Q9Y5Z0 21-518): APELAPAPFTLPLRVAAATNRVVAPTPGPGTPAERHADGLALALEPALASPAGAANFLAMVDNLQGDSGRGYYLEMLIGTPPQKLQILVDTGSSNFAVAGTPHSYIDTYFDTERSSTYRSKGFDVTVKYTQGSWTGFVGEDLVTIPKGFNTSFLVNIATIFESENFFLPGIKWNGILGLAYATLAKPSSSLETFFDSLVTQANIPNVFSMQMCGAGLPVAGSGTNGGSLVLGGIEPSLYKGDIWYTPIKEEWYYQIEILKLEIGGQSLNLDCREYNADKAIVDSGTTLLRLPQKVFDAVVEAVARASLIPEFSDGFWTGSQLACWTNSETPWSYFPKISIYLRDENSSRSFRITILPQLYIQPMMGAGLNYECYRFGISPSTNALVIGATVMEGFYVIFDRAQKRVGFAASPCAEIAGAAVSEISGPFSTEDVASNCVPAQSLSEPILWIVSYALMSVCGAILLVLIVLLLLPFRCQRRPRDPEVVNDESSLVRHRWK

B1: Nanobody XA4815 (VHH)
VHH: QVQLQESGGGLVQAGGSLRLSCAASGFTFSRAAMRWVRRAPERGLEWVANINAGDGSASYADFVKGRFTASRDKAGNRLYLQMDNLRPNDTAVYYCIYNGHRGQGTQVTVSS
B1: binds.
